The text below walks through data of patent US20220370632A1 (HEIDELBERG PHARMA RESEARCH, published 2022).

In assay [1] the target is T1, human CD37 on CD37-positive human cell lines (MEC-1, MEC-2, Raji, Ramos) (human, UniProt P11049 1-281).
T1 sequence: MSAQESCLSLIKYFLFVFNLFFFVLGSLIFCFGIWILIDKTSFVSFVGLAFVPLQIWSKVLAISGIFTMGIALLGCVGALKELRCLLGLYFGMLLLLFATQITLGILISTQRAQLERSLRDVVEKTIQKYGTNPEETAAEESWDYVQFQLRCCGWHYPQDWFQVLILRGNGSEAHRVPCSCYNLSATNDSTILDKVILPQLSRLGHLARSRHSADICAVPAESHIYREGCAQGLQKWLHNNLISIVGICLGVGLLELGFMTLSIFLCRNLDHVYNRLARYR
Kind of assay: cell-based or functional assay.

The target of assay [2] is T1, human CD37 on CD37-positive human cell …. Kind of assay: flow cytometry (FACS) on MEC-2 cells, median fluorescence against antibody concentration. For orientation: A flow cytometer gives signals particle by particle.
Assay [3] has the same target. The assay is described as follows: flow cytometry (FACS) on Ramos cells, median fluorescence against antibody concentration.

B1: chHH1-HDP-(XV) (antibody)
heavy: not shown
light: DIVMTQSHKLLSTSVGDRVSITCKASQDVSTAVDWYQQKPGQSPKLLINWASTRHTGVPDRFTGSGSGTDYTLTISSMQAEDLALYYCRQHYSTPFTFGSGTKLEIKRTVAAPSVFIFPPSDEQLKSGTASVVCLLNNFYPREAKVQWKVDNALQSGNSQESVTEQDSKDSTYSLSSTLTLSKADYEKHKVYACEVTHQGLSSPVTKSFNRGEC
modifications: amatoxin-linker moiety of formula (XV), DAR 3.36; cysteine residues carrying it not stated
As for B1, in assay [1], the “EC 50 [M], cytotoxicity in vitro on MEC-2 cells” value (from here on “EC 50 [M] … on MEC-2 cells”) was 6.06e-08 M; the “EC 50 [M], cytotoxicity in vitro on Raji cells” value (“EC 50 [M] … on Raji cells” for short) is 6.1e-10 M; the “EC 50 [M], cytotoxicity in vitro on Ramos cells” value (“EC 50 [M] … on Ramos cells” below) stood at 8.5e-11 M.

B2: chHH1-HDP-D265C-(XII) (antibody)
heavy: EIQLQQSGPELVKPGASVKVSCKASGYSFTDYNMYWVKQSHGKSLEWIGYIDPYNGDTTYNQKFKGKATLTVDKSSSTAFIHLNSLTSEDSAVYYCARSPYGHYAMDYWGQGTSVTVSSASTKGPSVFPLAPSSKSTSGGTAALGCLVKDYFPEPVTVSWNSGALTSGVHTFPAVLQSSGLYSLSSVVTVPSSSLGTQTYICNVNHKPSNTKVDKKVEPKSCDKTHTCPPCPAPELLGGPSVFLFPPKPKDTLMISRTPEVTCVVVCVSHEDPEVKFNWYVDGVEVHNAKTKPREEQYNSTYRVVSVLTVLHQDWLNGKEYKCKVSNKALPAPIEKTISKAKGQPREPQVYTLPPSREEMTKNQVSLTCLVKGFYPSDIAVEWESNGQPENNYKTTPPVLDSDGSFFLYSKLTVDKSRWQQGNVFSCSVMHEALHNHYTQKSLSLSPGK
light: B1 light
modifications: amatoxin-linker moiety of formula (XII) on heavy chain 265Cys (EU numbering); DAR 2.03
In the case of B2, in assay [1], the “EC 50 [M] … on MEC-2 cells” value came out at 2.14e-08 M; the “EC 50 [M] … on Raji cells” value is 3.9e-09 M; the “EC 50 [M] … on Ramos cells” value came to 2.2e-10 M.

B3: chHH1-HDP-LALA-D265C (antibody, human IgG1, kappa, L234A L235A)
heavy: EIQLQQSGPELVKPGASVKVSCKASGYSFTDYNMYWVKQSHGKSLEWIGYIDPYNGDTTYNQKFKGKATLTVDKSSSTAFIHLNSLTSEDSAVYYCARSPYGHYAMDYWGQGTSVTVSSASTKGPSVFPLAPSSKSTSGGTAALGCLVKDYFPEPVTVSWNSGALTSGVHTFPAVLQSSGLYSLSSVVTVPSSSLGTQTYICNVNHKPSNTKVDKKVEPKSCDKTHTCPPCPAPEAAGGPSVFLFPPKPKDTLMISRTPEVTCVVVCVSHEDPEVKFNWYVDGVEVHNAKTKPREEQYNSTYRVVSVLTVLHQDWLNGKEYKCKVSNKALPAPIEKTISKAKGQPREPQVYTLPPSREEMTKNQVSLTCLVKGFYPSDIAVEWESNGQPENNYKTTPPVLDSDGSFFLYSKLTVDKSRWQQGNVFSCSVMHEALHNHYTQKSLSLSPGK
light: B1 light
notes: Unconjugated chimeric antibody; Expressed in CHO or HEK293 cells; also called anti-CD37 monoclonal antibody chHH1-LALA-D265C; anti-CD37 chHH1-HDP-LALA-D265C
Turning to B3, the “EC50 (read off the curve)” value in assay [2] is around 3 µg/mL; in assay [3] it was around 1 µg/mL.

B4: conjugate XXVI (antibody)
heavy: B3 heavy
light: B1 light
modifications: amatoxin-linker moiety of formula (XV) on heavy chain 265Cys (EU numbering); DAR 3.15
In the case of B4, in assay [1], the “EC 50 [M] … on MEC-2 cells” value is 7.54e-09 M; the “EC 50 [M] … on Raji cells” value is 2.04e-09 M; the “EC 50 [M] … on Ramos cells” value came to 3.2e-10 M.

B5: chHH1-HDP-D265C-(XV) (antibody)
heavy: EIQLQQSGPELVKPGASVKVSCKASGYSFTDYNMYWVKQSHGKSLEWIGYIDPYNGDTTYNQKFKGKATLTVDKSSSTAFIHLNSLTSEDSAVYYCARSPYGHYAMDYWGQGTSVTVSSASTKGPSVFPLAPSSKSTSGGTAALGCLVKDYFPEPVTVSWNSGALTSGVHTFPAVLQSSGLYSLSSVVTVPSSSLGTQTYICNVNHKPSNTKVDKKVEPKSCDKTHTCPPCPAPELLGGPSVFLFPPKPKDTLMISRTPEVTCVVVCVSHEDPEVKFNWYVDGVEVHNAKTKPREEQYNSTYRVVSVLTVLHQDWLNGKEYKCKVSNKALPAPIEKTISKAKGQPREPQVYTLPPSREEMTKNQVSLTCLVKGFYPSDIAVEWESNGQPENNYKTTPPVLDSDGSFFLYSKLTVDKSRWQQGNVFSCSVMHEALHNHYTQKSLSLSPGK
light: B1 light
modifications: amatoxin-linker moiety of formula (XV) on heavy chain 265Cys (EU numbering); DAR 2.80
With B5, in assay [1], the “EC 50 [M] … on MEC-2 cells” value was found to be 1.11e-08 M; the “EC 50 [M] … on Raji cells” value came to 1.63e-09 M; the “EC 50 [M] … on Ramos cells” value came out at 4.7e-10 M.

B6: chHH1-HDP-(XIII) (antibody)
heavy: not shown
light: B1 light
modifications: amatoxin-linker moiety of formula (XIII); DAR printed as '-'; cysteine residues carrying it not stated
For the molecule B6, in assay [1], the “EC 50 [M] … on MEC-2 cells” value was determined as 5.59e-10 M; the “EC 50 [M] … on Raji cells” value came out at 4.8e-10 M; the “EC 50 [M] … on Ramos cells” value was 5.6e-11 M.

B7: chHH1-HDP-D265C-(XIII) (antibody)
heavy: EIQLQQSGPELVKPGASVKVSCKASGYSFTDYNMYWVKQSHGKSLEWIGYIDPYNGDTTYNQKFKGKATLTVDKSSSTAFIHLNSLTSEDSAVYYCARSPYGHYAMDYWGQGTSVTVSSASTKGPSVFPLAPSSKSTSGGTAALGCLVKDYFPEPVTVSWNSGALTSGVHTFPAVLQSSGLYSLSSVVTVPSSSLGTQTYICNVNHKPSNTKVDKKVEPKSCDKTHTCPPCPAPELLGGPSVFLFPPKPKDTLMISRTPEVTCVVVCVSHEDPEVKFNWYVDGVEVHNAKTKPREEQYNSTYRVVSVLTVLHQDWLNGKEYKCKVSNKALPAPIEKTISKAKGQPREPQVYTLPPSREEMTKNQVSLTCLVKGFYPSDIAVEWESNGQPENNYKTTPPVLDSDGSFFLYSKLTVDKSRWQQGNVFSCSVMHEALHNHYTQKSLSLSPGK
light: B1 light
modifications: amatoxin-linker moiety of formula (XIII) on heavy chain 265Cys (EU numbering); DAR 1.96
As for B7, in assay [1], the “EC 50 [M] … on MEC-2 cells” value came out at 5.41e-09 M; the “EC 50 [M] … on Raji cells” value came to 6.2e-10 M; the “EC 50 [M] … on Ramos cells” value came out at 1.1e-10 M.

B8: conjugate XXIV (antibody)
heavy: B3 heavy
light: B1 light
modifications: amatoxin-linker moiety of formula (XIII) on heavy chain 265Cys (EU numbering); DAR printed as '-'
For B8, in assay [1], the “EC 50 [M] … on MEC-2 cells” value was determined as 1.19e-08 M; the “EC 50 [M] … on Raji cells” value is 7.5e-10 M; the “EC 50 [M] … on Ramos cells” value turned out to be 8.6e-11 M.

As a reminder, the EC50 (read off the curve) is the concentration that produces a half-maximal response. A lower EC50 (read off the curve) goes with higher potency in that assay.
